Results published in publication PMC10344873 (2023).

B1: wild type p16-NLuc (mouse p16 tagged with NanoLuc luciferase) [mouse] / 3×Flag-tagged wild type CDK6 [mouse (by the printed Gene ID 12571; not stated in words for CDK6)] (parent complex)
chain 1: MESAADRLARAAAQGRVHDVRALLEAGVSPNAPNSFGRTPIQVMMMGNVHVAALLLNYGADSNCEDPTTFSRPVHDAAREGFLDTLVVLHGSGARLDVRDAWGRLPLDLAQERGHQDIVRYLRSAGCSLCSAGWSLCTAGNVAQTDGHSFSSSTPRALELRGQSQEQS
chain 2: MEKDSLSRADQQYECVAEIGEGAYGKVFKARDLKNGGRFVALKRVRVQTSEEGMPLSTIREVAVLRHLETFEHPNVVRLFDVCTVSRTDRETKLTLVFEHVDQDLTTYLDKVPEPGVPTETIKDMMFQLLRGLDFLHSHRVVHRDLKPQNILVTSSGQIKLADFGLARIYSFQMALTSVVVTLWYRAPEVLLQSSYATPVDLWSVGCIFAEMFRRKPLFRGSSDVDQLGKILDIIGLPGEEDWPRDVALPRQAFHSKSAQPIEKFVTDIDELGKDLLLKCLTFNPAKRISAYGALNHPYFQDLERYKDNLNSHLPSNQSTSELNTA

Variants of: B1
Assay: LUMIER assay (Flag IP, on-bead NanoLuc bioluminescence); HEK293T cells, transient expression; n = 6 independent experiments; signals normalised on input; parent: 1; read off a plot

ratio to parent	Variant
~0.6	chain 1 P73L
~0.18	chain 1 G15S
~0.08	chain 1 G47D

Variants of: B1
Assay: as above
Remark: another data set of the same source

ratio to parent	Variant
~0.5	chain 2 D102N
~0.6	chain 2 D110H
